For the experiment, the target named is human NGF (human) (UniProt P01138). Kind of experiment: cell-based or functional assay.
Chain of human NGF (human) (P01138 122-241 limits assumed): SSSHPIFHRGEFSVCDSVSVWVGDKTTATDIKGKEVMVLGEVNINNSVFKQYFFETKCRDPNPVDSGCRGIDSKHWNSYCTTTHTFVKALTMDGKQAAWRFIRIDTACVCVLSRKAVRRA

Substance mouse antibody 911 (Fab) returned an antibody concentration that totally blocked NGF-elicited survival of trigeminal neurons of 20 nM.

The values above are taken from patent US20140017235A1.
